Experimental data: PMC4316159
pKd: −log10 of the molar value.

Columns and labels:
[1] = target: biotinylated maltose-binding protein (MBP) [MBP: P0AEX9]; test: SPR
[2] = target: CD44 trans-membrane domain (TMD) fused to maltose-binding protein [MBP: P0AEX9]; test: single-molecule force spectroscopy

pKd [1]: 7.00 | koff [1]: 0.0387 s⁻¹ | kon [1]: 360000 M⁻¹ s⁻¹ | decrease of rupture force against YS1 [2]: 10 to 15 pN | unstressed off-rate k0off (Bell model) [2]: 0.00076 s⁻¹
Substance: monobody YS1(E47A) (designed binder)
